Results reported in patent US20140044713A1.
Each block holds one substance with its values, some of them ahead of it.

Assays:
[1] = molecular target: Frz5 (endogenous, LS174T cells) (human) (UniProt Q13467); assay: TAP (anti-FLAG, anti-HA) + mass spectrometry, bait stably expressed in LS174T cells, Exp 2, prey Frzd5
[2] = molecular target: Frz7 (endogenous, LS174T cells) (human) (UniProt O75084); assay: TAP (anti-FLAG, anti-HA) + mass spectrometry, bait stably expressed in LS174T cells, Exp 2, prey Frzd7
[3] = molecular target: Lgr5 (endogenous, or expression construct whose tag is not stated) (human) (UniProt O75473); assay: TAP (anti-FLAG, anti-HA) + mass spectrometry, bait stably expressed in LS174T cells, Exp 2, prey LGR5
[4] = molecular target: LRP6 (endogenous) (human) (UniProt O75581); assay: TAP (anti-FLAG, anti-HA) + mass spectrometry, bait stably expressed in LS174T cells, Exp 2, prey LRP6
[5] = molecular target: LRP6 (endogenous) (human) (UniProt O75581); assay: TAP (anti-FLAG, anti-HA) + mass spectrometry, bait stably expressed in LS174T cells, Exp 4, prey LRP6
[6] = molecular target: LRP5 (endogenous) (human) (UniProt O75197); assay: TAP (anti-FLAG, anti-HA) + mass spectrometry, bait stably expressed in LS174T cells, Exp 5, prey LRP5
[7] = molecular target: Frz6 (endogenous, LS174T cells) (human) (UniProt O60353); assay: TAP (anti-FLAG, anti-HA) + mass spectrometry, bait stably expressed in LS174T cells, Exp 5, prey Frzd6
[8] = molecular target: LRP5 (endogenous) (human) (UniProt O75197); assay: TAP (anti-FLAG, anti-HA) + mass spectrometry, bait stably expressed in LS174T cells, Exp 6, prey LRP5
[9] = molecular target: LRP6 (endogenous) (human) (UniProt O75581); assay: TAP (anti-FLAG, anti-HA) + mass spectrometry, bait stably expressed in LS174T cells, Exp 5, prey LRP6
[10] = molecular target: Frz6 (endogenous, LS174T cells) (human) (UniProt O60353); assay: TAP (anti-FLAG, anti-HA) + mass spectrometry, bait stably expressed in LS174T cells, Exp 4, prey Frzd6
[11] = molecular target: LRP5 (endogenous) (human) (UniProt O75197); assay: TAP (anti-FLAG, anti-HA) + mass spectrometry, bait stably expressed in LS174T cells, Exp 4, prey LRP5
[12] = molecular target: Frz6 (endogenous, LS174T cells) (human) (UniProt O60353); assay: TAP (anti-FLAG, anti-HA) + mass spectrometry, bait stably expressed in LS174T cells, Exp 6, prey Frzd6
[13] = molecular target: Frz6 (endogenous, LS174T cells) (human) (UniProt O60353); assay: TAP (anti-FLAG, anti-HA) + mass spectrometry, bait stably expressed in LS174T cells, Exp 3, prey Frzd6
[14] = molecular target: LRP6 (endogenous) (human) (UniProt O75581); assay: TAP (anti-FLAG, anti-HA) + mass spectrometry, bait stably expressed in LS174T cells, Exp 3, prey LRP6
[15] = molecular target: Lgr4 (endogenous, or expression construct whose tag is not stated) (human) (UniProt Q9BXB1); assay: cell-based or functional assay
[16] = molecular target: LRP6 (endogenous) (human) (UniProt O75581); assay: TAP (anti-FLAG, anti-HA) + mass spectrometry, bait stably expressed in LS174T cells, Exp 7, prey LRP6
[17] = molecular target: Lgr5 (endogenous, or expression construct whose tag is not stated) (human) (UniProt O75473); assay: TAP (anti-FLAG, anti-HA) + mass spectrometry, bait stably expressed in LS174T cells, Exp 7, prey LGR5
[18] = molecular target: LRP5 (endogenous) (human) (UniProt O75197); assay: TAP (anti-FLAG, anti-HA) + mass spectrometry, bait stably expressed in LS174T cells, Exp 7, prey LRP5
[19] = molecular target: Lgr4 (endogenous, or expression construct whose tag is not stated) (human) (UniProt Q9BXB1); assay: TAP (anti-FLAG, anti-HA) + mass spectrometry, bait stably expressed in LS174T cells, Exp 7, prey LGR4

Chain of LRP6 (endogenous) (human) (O75581 20-1613): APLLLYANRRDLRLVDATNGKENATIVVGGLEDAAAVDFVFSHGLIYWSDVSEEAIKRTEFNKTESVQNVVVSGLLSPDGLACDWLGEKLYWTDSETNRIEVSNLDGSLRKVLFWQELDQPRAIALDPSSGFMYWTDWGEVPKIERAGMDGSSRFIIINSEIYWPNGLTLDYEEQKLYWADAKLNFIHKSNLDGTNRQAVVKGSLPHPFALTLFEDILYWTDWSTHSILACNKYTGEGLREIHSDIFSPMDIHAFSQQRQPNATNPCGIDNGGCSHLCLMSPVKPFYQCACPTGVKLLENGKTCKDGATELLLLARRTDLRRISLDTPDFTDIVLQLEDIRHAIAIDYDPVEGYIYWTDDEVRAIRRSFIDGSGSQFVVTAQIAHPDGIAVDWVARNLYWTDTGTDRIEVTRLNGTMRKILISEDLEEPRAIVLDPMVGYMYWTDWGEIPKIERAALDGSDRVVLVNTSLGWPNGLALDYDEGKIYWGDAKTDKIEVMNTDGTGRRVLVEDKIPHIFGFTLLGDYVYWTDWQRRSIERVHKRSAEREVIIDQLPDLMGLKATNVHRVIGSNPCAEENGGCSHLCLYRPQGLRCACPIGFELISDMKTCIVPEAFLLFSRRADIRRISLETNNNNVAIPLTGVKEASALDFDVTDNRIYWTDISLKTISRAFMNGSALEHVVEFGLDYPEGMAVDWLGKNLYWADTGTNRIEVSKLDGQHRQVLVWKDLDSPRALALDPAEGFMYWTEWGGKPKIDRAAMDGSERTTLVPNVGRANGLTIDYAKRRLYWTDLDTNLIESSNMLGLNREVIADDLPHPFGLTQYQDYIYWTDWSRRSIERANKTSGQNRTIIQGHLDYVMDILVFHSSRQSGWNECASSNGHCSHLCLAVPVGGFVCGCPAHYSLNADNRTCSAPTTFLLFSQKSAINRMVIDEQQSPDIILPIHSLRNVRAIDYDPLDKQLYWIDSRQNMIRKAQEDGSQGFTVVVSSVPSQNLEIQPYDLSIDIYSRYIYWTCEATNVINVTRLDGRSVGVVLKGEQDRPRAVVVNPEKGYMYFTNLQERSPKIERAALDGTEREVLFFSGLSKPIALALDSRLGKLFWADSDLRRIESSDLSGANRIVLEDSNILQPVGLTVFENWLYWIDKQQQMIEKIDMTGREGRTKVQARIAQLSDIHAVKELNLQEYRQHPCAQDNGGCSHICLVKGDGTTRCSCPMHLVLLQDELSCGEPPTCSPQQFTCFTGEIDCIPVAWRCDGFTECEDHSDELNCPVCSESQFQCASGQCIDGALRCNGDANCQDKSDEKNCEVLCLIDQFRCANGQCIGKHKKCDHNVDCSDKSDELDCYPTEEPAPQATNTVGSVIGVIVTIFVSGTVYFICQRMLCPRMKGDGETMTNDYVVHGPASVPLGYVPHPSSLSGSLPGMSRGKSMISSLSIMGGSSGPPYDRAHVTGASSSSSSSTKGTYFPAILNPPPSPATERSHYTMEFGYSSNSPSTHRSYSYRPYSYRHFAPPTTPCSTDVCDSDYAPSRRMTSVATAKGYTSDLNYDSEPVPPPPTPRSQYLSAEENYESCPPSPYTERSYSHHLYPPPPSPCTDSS
Chain of Frz6 (endogenous, LS174T cells) (human) (O60353 19-706): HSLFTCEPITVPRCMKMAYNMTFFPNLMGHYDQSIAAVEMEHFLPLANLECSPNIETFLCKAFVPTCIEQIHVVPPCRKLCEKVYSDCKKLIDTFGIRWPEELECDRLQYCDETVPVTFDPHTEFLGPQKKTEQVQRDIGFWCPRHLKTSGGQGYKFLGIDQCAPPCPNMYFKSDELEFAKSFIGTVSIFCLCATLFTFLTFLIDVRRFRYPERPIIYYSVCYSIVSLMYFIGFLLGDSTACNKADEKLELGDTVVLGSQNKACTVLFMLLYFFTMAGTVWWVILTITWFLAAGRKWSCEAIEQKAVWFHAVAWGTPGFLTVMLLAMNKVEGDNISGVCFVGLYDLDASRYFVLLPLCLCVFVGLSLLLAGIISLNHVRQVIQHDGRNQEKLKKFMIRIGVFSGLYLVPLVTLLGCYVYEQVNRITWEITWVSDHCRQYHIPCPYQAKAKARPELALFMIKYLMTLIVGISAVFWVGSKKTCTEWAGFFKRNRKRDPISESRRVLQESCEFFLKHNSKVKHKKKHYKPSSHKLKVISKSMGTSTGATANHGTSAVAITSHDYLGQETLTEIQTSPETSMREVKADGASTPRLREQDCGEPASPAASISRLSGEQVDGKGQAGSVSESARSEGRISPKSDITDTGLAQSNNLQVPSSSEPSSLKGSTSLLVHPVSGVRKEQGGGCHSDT
Chain of Lgr5 (endogenous, or expression construct whose tag is not stated) (human) (O75473 22-907): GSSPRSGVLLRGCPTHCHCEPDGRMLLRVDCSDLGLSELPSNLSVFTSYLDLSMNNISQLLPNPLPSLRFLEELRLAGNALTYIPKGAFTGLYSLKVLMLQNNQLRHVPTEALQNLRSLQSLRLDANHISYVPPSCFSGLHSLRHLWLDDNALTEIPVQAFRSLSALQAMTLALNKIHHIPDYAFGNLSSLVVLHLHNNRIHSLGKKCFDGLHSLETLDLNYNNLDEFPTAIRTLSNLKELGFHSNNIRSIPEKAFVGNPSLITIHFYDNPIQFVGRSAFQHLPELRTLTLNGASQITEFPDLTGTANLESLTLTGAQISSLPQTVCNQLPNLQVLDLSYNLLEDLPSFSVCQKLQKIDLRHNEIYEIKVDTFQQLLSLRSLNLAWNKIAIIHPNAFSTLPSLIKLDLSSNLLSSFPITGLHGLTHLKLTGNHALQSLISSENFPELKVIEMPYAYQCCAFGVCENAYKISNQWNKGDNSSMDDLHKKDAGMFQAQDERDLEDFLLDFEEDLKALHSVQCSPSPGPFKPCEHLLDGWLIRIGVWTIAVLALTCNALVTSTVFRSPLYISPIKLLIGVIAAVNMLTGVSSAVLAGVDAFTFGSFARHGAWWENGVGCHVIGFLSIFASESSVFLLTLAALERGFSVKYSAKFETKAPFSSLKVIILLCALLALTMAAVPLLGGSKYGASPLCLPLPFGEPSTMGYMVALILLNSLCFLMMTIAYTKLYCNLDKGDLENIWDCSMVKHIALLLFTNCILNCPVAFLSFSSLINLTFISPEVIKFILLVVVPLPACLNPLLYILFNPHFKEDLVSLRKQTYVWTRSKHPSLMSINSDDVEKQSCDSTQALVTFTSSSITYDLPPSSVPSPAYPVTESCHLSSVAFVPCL
Chain of LRP5 (endogenous) (human) (O75197 32-1615): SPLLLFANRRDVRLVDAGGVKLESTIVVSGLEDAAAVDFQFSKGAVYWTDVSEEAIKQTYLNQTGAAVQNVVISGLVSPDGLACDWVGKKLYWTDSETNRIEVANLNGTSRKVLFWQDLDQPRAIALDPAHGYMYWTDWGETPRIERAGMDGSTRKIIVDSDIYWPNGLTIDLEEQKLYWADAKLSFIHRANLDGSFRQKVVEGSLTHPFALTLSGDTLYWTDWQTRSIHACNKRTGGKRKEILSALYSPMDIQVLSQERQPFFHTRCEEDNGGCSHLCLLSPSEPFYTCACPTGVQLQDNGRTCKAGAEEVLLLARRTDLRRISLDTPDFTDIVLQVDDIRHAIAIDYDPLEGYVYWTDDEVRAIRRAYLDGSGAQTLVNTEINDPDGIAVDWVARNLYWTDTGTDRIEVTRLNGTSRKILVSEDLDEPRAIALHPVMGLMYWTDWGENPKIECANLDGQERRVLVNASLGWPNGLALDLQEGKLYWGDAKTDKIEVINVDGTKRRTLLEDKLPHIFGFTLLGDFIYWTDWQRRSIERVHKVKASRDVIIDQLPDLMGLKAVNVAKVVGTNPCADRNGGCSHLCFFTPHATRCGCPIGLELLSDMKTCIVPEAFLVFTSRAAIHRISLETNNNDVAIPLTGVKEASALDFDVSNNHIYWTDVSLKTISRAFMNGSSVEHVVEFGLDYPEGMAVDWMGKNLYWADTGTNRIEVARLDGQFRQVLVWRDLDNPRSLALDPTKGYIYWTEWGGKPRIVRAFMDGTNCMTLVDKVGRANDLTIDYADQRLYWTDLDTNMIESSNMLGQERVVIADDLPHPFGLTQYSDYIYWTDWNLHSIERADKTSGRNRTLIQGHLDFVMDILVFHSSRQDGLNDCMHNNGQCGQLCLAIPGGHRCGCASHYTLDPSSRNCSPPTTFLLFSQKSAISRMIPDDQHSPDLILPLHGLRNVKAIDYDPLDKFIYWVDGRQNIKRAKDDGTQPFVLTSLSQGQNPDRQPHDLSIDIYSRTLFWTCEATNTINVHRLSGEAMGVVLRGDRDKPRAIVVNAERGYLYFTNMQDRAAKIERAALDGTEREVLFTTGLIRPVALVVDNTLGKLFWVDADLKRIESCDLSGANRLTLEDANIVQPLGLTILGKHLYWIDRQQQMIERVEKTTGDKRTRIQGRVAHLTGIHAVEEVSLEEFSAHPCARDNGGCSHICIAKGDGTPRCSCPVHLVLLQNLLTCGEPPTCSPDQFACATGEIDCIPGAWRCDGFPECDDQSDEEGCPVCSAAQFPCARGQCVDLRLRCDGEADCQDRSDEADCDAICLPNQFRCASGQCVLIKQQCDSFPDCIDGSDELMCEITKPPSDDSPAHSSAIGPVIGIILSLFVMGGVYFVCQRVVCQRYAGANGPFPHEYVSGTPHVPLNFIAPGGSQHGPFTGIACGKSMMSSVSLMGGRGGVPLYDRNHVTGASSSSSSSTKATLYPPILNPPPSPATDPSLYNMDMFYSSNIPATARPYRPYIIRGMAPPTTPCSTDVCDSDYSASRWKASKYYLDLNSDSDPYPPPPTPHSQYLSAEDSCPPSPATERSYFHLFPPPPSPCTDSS

- # unique peptides [1]: 1
- MASCOT Protein score (MudPit) [1]: 22
- assigned spectra [1]: 1
- # unique peptides [2]: 1
- MASCOT Protein score (MudPit) [2]: 87
- assigned spectra [2]: 4
- # unique peptides [3]: 7
- MASCOT Protein score (MudPit) [3]: 62
- assigned spectra [3]: 10
- # unique peptides [4]: 3
- MASCOT Protein score (MudPit) [4]: 32
- assigned spectra [4]: 3
Substance: FLAG/HA-tagged Lgr4 (from UniProt Q9BXB1 25-951) (receptor)

- # unique peptides [5]: 2
- MASCOT Protein score (MudPit) [5]: 43
- assigned spectra [5]: 2
- # unique peptides [6]: 3
- MASCOT Protein score (MudPit) [6]: 122
- assigned spectra [6]: 3
- # unique peptides [7]: 6
- MASCOT Protein score (MudPit) [7]: 193
- assigned spectra [7]: 11
- # unique peptides [8]: 1
- MASCOT Protein score (MudPit) [8]: 41
- assigned spectra [8]: 1
- # unique peptides [9]: 6
- MASCOT Protein score (MudPit) [9]: 91
- assigned spectra [9]: 6
- # unique peptides [10]: 1
- MASCOT Protein score (MudPit) [10]: 94
- assigned spectra [10]: 2
- # unique peptides [11]: 2
- MASCOT Protein score (MudPit) [11]: 91
- assigned spectra [11]: 3
- # unique peptides [12]: 5
- MASCOT Protein score (MudPit) [12]: 140
- assigned spectra [12]: 8
- # unique peptides [13]: 1
- MASCOT Protein score (MudPit) [13]: 53
- assigned spectra [13]: 1
- # unique peptides [14]: 3
- MASCOT Protein score (MudPit) [14]: 71
- assigned spectra [14]: 3
Substance: FLAG/HA-tagged Lgr5 (from UniProt O75473 22-907) (receptor)

- TOPFlash activity, Wnt3A with Rspo-1 against Wnt3A alone, HEK293T cells [15]: 12 fold
Substance: Rspo-1 (as added in the TOPflash assay of FIG. 5B) (from UniProt Q2MKA7 21-263) (ligand)

- # unique peptides [16]: 10
- MASCOT Protein score (MudPit) [16]: 279
- assigned spectra [16]: 14
- # unique peptides [17]: 2
- MASCOT Protein score (MudPit) [17]: 33
- assigned spectra [17]: 2
- # unique peptides [18]: 3
- MASCOT Protein score (MudPit) [18]: 166
- assigned spectra [18]: 5
- # unique peptides [19]: 10
- MASCOT Protein score (MudPit) [19]: 456
- assigned spectra [19]: 30
Substance: tagged Frizzled5 (Frz5) (from UniProt Q13467 27-585) (receptor)
